The record followed here is article doi:10.1101/2022.10.10.511578 (bioRxiv, 2022).

For assay [1], the target named is T1, arrestin2^1-393 (human).
T1 chain: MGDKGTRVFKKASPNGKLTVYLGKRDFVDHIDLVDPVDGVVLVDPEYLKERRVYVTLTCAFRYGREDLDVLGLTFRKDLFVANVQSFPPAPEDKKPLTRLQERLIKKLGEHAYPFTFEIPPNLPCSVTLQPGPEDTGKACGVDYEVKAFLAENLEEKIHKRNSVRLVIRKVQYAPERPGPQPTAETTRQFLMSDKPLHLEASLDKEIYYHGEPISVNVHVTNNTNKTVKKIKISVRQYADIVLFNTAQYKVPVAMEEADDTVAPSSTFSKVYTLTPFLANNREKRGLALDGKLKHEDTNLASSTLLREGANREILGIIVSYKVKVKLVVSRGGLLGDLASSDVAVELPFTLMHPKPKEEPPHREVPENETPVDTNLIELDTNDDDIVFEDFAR
As to the kind of experiment: NMR titration.

For assay [2], the target named is T2, arrestin2^1-359 (human).
T2 chain: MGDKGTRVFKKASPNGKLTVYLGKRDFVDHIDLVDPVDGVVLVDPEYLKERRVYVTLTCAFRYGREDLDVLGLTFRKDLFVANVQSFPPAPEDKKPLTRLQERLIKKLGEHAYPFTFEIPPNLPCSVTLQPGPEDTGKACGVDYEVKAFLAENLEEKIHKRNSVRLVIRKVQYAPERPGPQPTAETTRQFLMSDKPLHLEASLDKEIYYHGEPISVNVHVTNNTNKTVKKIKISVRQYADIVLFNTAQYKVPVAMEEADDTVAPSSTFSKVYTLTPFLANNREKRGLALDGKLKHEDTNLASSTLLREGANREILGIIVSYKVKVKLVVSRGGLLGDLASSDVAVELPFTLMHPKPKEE
The experiment in a line: crystal structure.

In assay [3] the target is T3, arrestin2^1-418 (C150L, C242V, C251V, C269S) (human).
T3 chain: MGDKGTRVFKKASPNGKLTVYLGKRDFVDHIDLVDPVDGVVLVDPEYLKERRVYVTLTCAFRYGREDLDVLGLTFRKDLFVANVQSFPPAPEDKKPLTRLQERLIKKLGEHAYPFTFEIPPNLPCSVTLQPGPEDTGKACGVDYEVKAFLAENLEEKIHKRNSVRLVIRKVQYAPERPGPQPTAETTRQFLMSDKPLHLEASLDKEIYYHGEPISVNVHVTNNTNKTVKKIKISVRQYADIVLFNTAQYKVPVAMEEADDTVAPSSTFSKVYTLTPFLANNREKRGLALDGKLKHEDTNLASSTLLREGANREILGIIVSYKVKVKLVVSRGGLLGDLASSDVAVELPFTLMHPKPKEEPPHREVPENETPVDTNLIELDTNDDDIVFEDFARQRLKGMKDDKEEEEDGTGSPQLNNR
As to the kind of experiment: SEC. For orientation: In gel filtration, larger molecules generally elute earlier.

No end group written: not given here.

For APERASSVYTRSTGEQEISVGL (also: phosphopeptide (4P), sites not given here) [CCR5 4P phosphopeptide], in assay [1], the Kd is more than 100 µM. In addition, the binding result in assay [2] is “binds”.

B1: CCR5 5P2 phosphopeptide (peptide)
peptide: APERASSVYTRSTGEQEISVGL
modifications: not fully specified; five-fold phosphorylated; comprising pT343; whole pattern in Figure 1C
B1: the Kd in assay [1] stood at 54 ± 6 µM.

Turning to APERASSVYTRSTGEQEISVGL (also: three-fold phosphorylated, sites not given here) [CCR5 3P1 phosphopeptide], the dissociation constant Kd in assay [1] is more than 100 µM.

Take APERASSVYTRSTGEQEISVGL (also: five-fold phosphorylated, lacking pT343, sites not given here) [CCR5 5P1 phosphopeptide]: in assay [1], the Kd turned out to be 147 ± 7 µM.

For APERASSVYTRSTGEQEISVGL (also: phosphopeptide (6P), sites not given here) [CCR5 6P phosphopeptide], in assay [1], binding was characterised by a dissociation constant (Kd) of 45 ± 6 µM. The binding result in assay [2] and in assay [3] was “binds” each time.

On to APERASSVYTRSTGEQEISVGL (also: phosphopeptide (3P2), sites not given here) [CCR5 3P2 phosphopeptide], for which, in assay [1], the Kd was more than 100 µM and the “fold lower affinity (than 6P or V2Rpp)” value was more than 4 fold. For the same molecule, the binding result in assay [3] is reported as “binds”.

As a reminder, the Kd is a measure of binding affinity in units of concentration. A higher Kd goes with lower affinity.
